Data taken from patent US9260728B2, “Terpene synthases from Santalum” (UNIVERSITY OF BRITISH COLUMBIA, priority 2009, dated 2016).

Tests used:
[1] = GC-FID determination of reaction products of terpene synthases from FPP with magnesium or manganese; type: biochemical
Experimental: Enzyme assays for all recombinant proteins were done in triplicate using the GC vial method described by O'Maille et al. (Anal. Biochem. 335:[…] (2004). For enzyme assays where only product identification was needed, 10 μg of protein was used in a final volume of 500 μL of reaction buffer (25 mM HEPES, 10% glycerol, 5 mM DTT and 10 mM of either Mg^2+ or Mn^2+. Substrates (FPP and GPP) were added to a final reaction concentration of 100 μM. Vials were overlaid with 500 μL of hexane to trap volatile products and incubated at 30° C. for 2 h. Mixtures were vortexed for 1 min to extract all volatiles and the vials were centrifuged to separate the organic layer.
Product mixtures were analysed by GC-MS in scan mode for product identification. A standard containing the three santalenes and α-trans-bergamotene was prepared by flash chromatography of 2 mL of neat S. album oil over silica and eluted in hexane. A final yield of 25 mg was resuspended in EtOAc and purity was confirmed by GC-FID with conditions described below. All mass spectra were compared to the NIST 2005 library and the literature. Retention indices were determined for all compounds using an n-alkane standard and compared to the literature (R. P. Adams, “Identification of essential oil components by gas chromatography/mass spectrometry,” Allured Publishing Corporation, Carol Stream, Ill. (1995)).
GC-FID was performed on a Shimadzu GC2010 with a 30 m 0.25 mm ID, 0.25 μm film DB-WAX column with He as the carrier gas. Splitless injection (2 μL) was used for all analyses. Conditions were as follows: injector 200° C., detector 250° C., column flow rate 1 mL/min. Oven program: 40° C. for 3 min, then 8° C./min to 180° C., held 5 min, then 10° C./min to 220° C., held 10 min. Needle height was adjusted to only draw from the upper organic layer of all sample vials. GC-MS was performed on a Shimadzu GC2010 with the same DB-WAX column and using He as the carrier gas. Conditions were as follows: injector 200° C., MS interface 240° C., ion source 200° C. Oven program: 40° C. for 3 min, then 8° C./min to 180° C., held 5 min, then 10° C./min to 220° C., held 10 min. Solvent cut time was set to 5 min. For product identification, total ion monitoring was used, scanning from m/z 45 to m/z 300. For kinetic assays, single ion monitoring of the sesquiterpene base ions m/z 91, 93 and 94 were used. Likewise monoterpene base ions (m/z 69, 71 and 93) were monitored. An internal standard (isobutyl benzene, 30 μM) was added to the hexane used to overlay each reaction. Detector response factors were calculated based on the santalene standard prepared earlier and used to determine the product concentrations for kinetic analysis.

[2] = as above; type: biochemical; remark: listed apart in the source

- Relative % composition in oil produced by enzyme: E-α-bergamotol ([1]; GC-FID): 19.2%
- Relative % composition in oil produced by enzyme: β-santalol ([1]; GC-FID): 26.3%
- Relative % composition in oil produced by enzyme: epi-β-santalol [2]: 4.2%
- Relative % composition in oil produced by enzyme: α-santalol [2]: 47.3%
B1: SspiSSy: santalene synthase from Santalum spicatum, gene SEQ ID NO:5, protein SEQ ID NO:6 (protein, listed as Santalum spicatum)
chain: MDSSTATATTAPFIDHTDHVNLKIDNDSSESRRMGNYKPSIWNYDFLQSLAIHHNIVEEKHLKLAEKLKGQVMSMFGAPMEPLAKLELVDVVQRLGLNHQFETEIKEALFSVYKDGSNGWWFGHLHATSLRFRLLRQCGLFIPQDVFKTFQSKTDEFDMKLCDNIKGLLSLYEASFLGWKGENILDEAKAFATKYLKNAWENISQKWLAKRVKHALALPLHWRVPRIEARWFIEAYEQEENMNPTLLKLAKLDFNMVQSIHQKEIGELARWWVTTGLDKLAFARNNLLQSYMWSCAIASDPKFKLARETIVEIGSVLTVVDDAYDVYGSMDELDHYTYSVERWSCVEIDKLPNTLKLIFMSMFNKTNEVGLRVQHERGYNGIPTFIKAWVEQCKAYQKEARWYHGGHTPPLEEYSLNGLVSIGFPLLLITGYIAIAENEAALDKVHPLPDLLHYSSLLSRLINDMGTSPDEMARGDNLKSIHCYMNETGASEEVAREHIKGIIEENWKILNQCCFDQSQFQEPFITFNLNSVRGSHFFYEFGDGFGVTDSWTKVDMKSVLIDPIPLGEE
modifications: SspiSSy Protein
- E-β-farnesene among reaction products (GC-FID) ([1]; FPP Mg, mean): 2.2
- Z-β-farnesene among reaction products (GC-FID) ([1]; FPP Mg, mean): 0.7
- epi-β-santalene among reaction products (GC-FID) ([1]; FPP Mg, mean): 4.2
- α-E-bergamotene among reaction products (GC-FID) ([1]; FPP Mg, mean): 19.2
- α-santalene among reaction products (GC-FID) ([1]; FPP Mg, mean): 47.3
- β-santalene among reaction products (GC-FID) ([1]; FPP Mg, mean): 26.3
- E-β-farnesene among reaction products (GC-FID) ([1]; FPP Mg, replicate 1): 2.5
- Z-β-farnesene among reaction products (GC-FID) ([1]; FPP Mg, replicate 1): 0.7
- epi-β-santalene among reaction products (GC-FID) ([1]; FPP Mg, replicate 1): 4.6
- α-E-bergamotene among reaction products (GC-FID) ([1]; FPP Mg, replicate 1): 19.6
- α-santalene among reaction products (GC-FID) ([1]; FPP Mg, replicate 1): 46.3
- β-santalene among reaction products (GC-FID) ([1]; FPP Mg, replicate 1): 26.4
- E-β-farnesene among reaction products (GC-FID) ([1]; FPP Mg, replicate 2): 2.2
- Z-β-farnesene among reaction products (GC-FID) ([1]; FPP Mg, replicate 2): 0.6
- epi-β-santalene among reaction products (GC-FID) ([1]; FPP Mg, replicate 2): 4.2
- α-E-bergamotene among reaction products (GC-FID) ([1]; FPP Mg, replicate 2): 19.2
- α-santalene among reaction products (GC-FID) ([1]; FPP Mg, replicate 2): 47.4
- β-santalene among reaction products (GC-FID) ([1]; FPP Mg, replicate 2): 26.4
- E-β-farnesene among reaction products (GC-FID) ([1]; FPP Mg, replicate 3): 2.0
- Z-β-farnesene among reaction products (GC-FID) ([1]; FPP Mg, replicate 3): 0.8
- epi-β-santalene among reaction products (GC-FID) ([1]; FPP Mg, replicate 3): 4.0
- α-E-bergamotene among reaction products (GC-FID) ([1]; FPP Mg, replicate 3): 18.9
- α-santalene among reaction products (GC-FID) ([1]; FPP Mg, replicate 3): 48.1
- β-santalene among reaction products (GC-FID) ([1]; FPP Mg, replicate 3): 26.3
- E-β-farnesene among reaction products (GC-FID) ([1]; FPP Mn, mean): 8.2
- Z-β-farnesene among reaction products (GC-FID) ([1]; FPP Mn, mean): 1.0
- epi-β-santalene among reaction products (GC-FID) ([1]; FPP Mn, mean): 1.3
- α-E-bergamotene among reaction products (GC-FID) ([1]; FPP Mn, mean): 78.9
- α-santalene among reaction products (GC-FID) ([1]; FPP Mn, mean): 7.3
- β-santalene among reaction products (GC-FID) ([1]; FPP Mn, mean): 3.4
- E-β-farnesene among reaction products (GC-FID) ([1]; FPP Mn, replicate 1): 8.1
- Z-β-farnesene among reaction products (GC-FID) ([1]; FPP Mn, replicate 1): 1.0
- epi-β-santalene among reaction products (GC-FID) ([1]; FPP Mn, replicate 1): 1.4
- α-E-bergamotene among reaction products (GC-FID) ([1]; FPP Mn, replicate 1): 79.0
- α-santalene among reaction products (GC-FID) ([1]; FPP Mn, replicate 1): 7.2
- β-santalene among reaction products (GC-FID) ([1]; FPP Mn, replicate 1): 3.3
- E-β-farnesene among reaction products (GC-FID) ([1]; FPP Mn, replicate 2): 8.0
- Z-β-farnesene among reaction products (GC-FID) ([1]; FPP Mn, replicate 2): 1.0
- epi-β-santalene among reaction products (GC-FID) ([1]; FPP Mn, replicate 2): 1.7
- α-E-bergamotene among reaction products (GC-FID) ([1]; FPP Mn, replicate 2): 78.6
- α-santalene among reaction products (GC-FID) ([1]; FPP Mn, replicate 2): 7.4
- β-santalene among reaction products (GC-FID) ([1]; FPP Mn, replicate 2): 3.4
- E-β-farnesene among reaction products (GC-FID) ([1]; FPP Mn, replicate 3): 8.4
- Z-β-farnesene among reaction products (GC-FID) ([1]; FPP Mn, replicate 3): 1.0
- epi-β-santalene among reaction products (GC-FID) ([1]; FPP Mn, replicate 3): 0.7
- α-E-bergamotene among reaction products (GC-FID) ([1]; FPP Mn, replicate 3): 79.1
- α-santalene among reaction products (GC-FID) ([1]; FPP Mn, replicate 3): 7.3
- β-santalene among reaction products (GC-FID) ([1]; FPP Mn, replicate 3): 3.5
